From patent US12630596B2, “Engineered lysin-human defensin protein” (priority 2018, dated 2026)
“Also recorded” adds a separate entry of the source.

Key:
[1] = test system: C. difficile R20291 spores; assay: Treatment efficacy in the mouse model of CDI; assay type: in vivo, C57BL/6 mice; settings: mice
Method: After 5 days of antibiotic pretreatment, mice were given autoclaved water for 2 days, followed by a single dose of clindamycin (10 mg/kg) intraperitoneally, 1 day before (day-1) challenge with C. difficile R20291 spores by gavage (day 0). The first group (R20291+PB) was infected with 10^6 C. difficile R20291 spores on day 0, and was given PBS (PB) by gavage at 4 h after spore gavage, followed by administration of PB by gavage twice a day from the first day (day 1) to the seventh day (day 7) after spore gavage. The second group (LHD+R20291) was given 400 μg LHD by gavage at 4 h after spore gavage, followed by treatments of 400 μg LHD by gavage twice a day from day 1 to day 7 after spore gavage.
C57BL/6 mice (6-week-old) were purchased from Charles River Laboratories, MA. The mice were housed in groups of 5 animals per cage under the same conditions. All studies followed the Guide for the Care and Use of Laboratory Animals of the National Institutes of Health, and were approved by the Institutes Animal Care and Use Committee (IACUC) at University of South Florida under the animal protocol number 1S00003756. Mouse model of CDI was established as described previously (Zhang, Zhao et al. 2015). The experimental design is illustrated in FIG. 6. Briefly, twenty BL6/C57 female mice were divided into two groups (n=10). Before challenge, mice were pre-treated with antibiotics mixture (ampicillin (200 mg/kg), kanamycin (40 mg/kg), gentamicin (3.5 mg/kg), colistin (4.2 mg/kg), metronidazole (21.5 mg/kg) and vancomycin (4.5 mg/kg)) in drinking water for five days. After that, all mice were given autoclaved water for 2 days, followed by a single dose of clindamycin (10 mg/kg) intraperitoneally 1 day before (day-1) challenge with C. difficile R20291 spores at 10^6 by gavage (day 0). At 4-hr post infection, one group of mice (R20291+LHD) were given a dose of 400 μg LHD in 200 μL of PBS by gavage, and another group of mice (R20291+PB) received sterilized PBS as control. From the first day (day 1) to the seventh day (day 7) after infection, mice were given a dose of 400 μg LHD or PBS by gavage twice a day. Weight changes, diarrhea, and survivals of the mice were recorded during the 7-day monitoring period. Fecal samples from mice were collected at days 0, 1, 3, 5, and 7 post challenge for quantitating C. difficile spores and TcdA/TcdB concentration.
Fecal samples were collected on days 1, 3, 5, 7 post-infection. 50 mg of feces were dissolved with 500 μl sterile MilliQ water for 16 h at 4° C., and then treated with 500 μl of purified ethanol (Sigma-Aldrich) for 60 min at room temperature to kill vegetative cells. Samples were vortexed, serially diluted and plated onto selective medium supplemented with taurocholate (0.1% w/v), Cefoxitin (16 μg/mL), L-cycloserine (250 μg/mL). The plates were incubated anaerobically at 37° C. for 48 h, colonies counted and results expressed as the CFU/gram of feces.
After challenges with C. difficile spores, feces were collected and dissolved in an equal volume (g/ml) of sterile PBS containing protease inhibitor cocktail and the supernatants were collected after centrifugation and stored at −80° C. TcdA/TcdB concentrations in the fecal samples of […] were determined by ELISA. Brieflly, 96-well Costar microplates were coated with 100 μl of anti-TcdA antibody (1 μg/ml) and anti-TcdB antibody (1 μg/ml) overnight in phosphate-buffered saline (PBS) at 4° C. On the next day, each well was blocked with 300 ul of blocking buffer (PBS+5% dry milk) at RT for 2 hrs. Next, standards and samples were added to each well (100 μl) in duplicate and incubated for 90 min at 25° C. After another set of washes, HRP-chicken anti-C. difficile Toxin A or B (1:5,000 dilution in PBS, Gallus Immunotech, Shirley, MA) was added to wells for 30 min at RT. A final set of 3 washes preceded the addition of the TMB Microwell Peroxidase Substrate for 20 minutes at RT in the dark. […]

C. difficile R20291 [2] = assay: Optical drop assay, lytic activity on C. difficile R20291; assay type: cell-based, Clostridium difficile; settings: strain R20291, 200 μg/ml
Method: The lytic activity of proteins LHD and LCD against C. difficile strains was determined as previously described (Wang, Euler et al. 2015). Briefly, C. difficile strains were cultured in an anaerobic chamber to mid-log phase, and the bacterial pellets were harvested by centrifugation at 3000×g for 5 min. Pellets were washed twice and re-suspended in sterilized ddH2O, and resuspensions were not buffered. Prior to tests, bacterial optical density at 600 nm (OD600) was adjusted to approximately 0.8-1.0. Proteins LHD and LCD were added into the cell re-suspension with the final concentration of 200 μg/ml. The drop in OD600 at 37° C. was measured every 10 minutes for 60 min˜90 min. Bacterial re-suspension with sterilized water was also set as a control. Three repeats were included in each test.

C. difficile R20291 [3] = assay: Minimum inhibitory concentration (MIC) on strain R20291; assay type: cell-based, Clostridium difficile; settings: strain R20291, BHIS, 37° C. for 18 h
Method: The minimum inhibitory concentrations (MICs) of LHD and LCD were determined using the protocol of Wiegand, et al. (Wiegand, Hilpert et al. 2008) with some modifications, as described previously (Gilmer, Schmitz et al. 2017). In brief, strain R20291 was grown in BHIS and adjusted to ˜5×10^5 cells/ml in BHIS, and distributed into the wells of a 96-well round bottom polystyrene microtiter plate. In the wells of each row, either sterile-filtered lysin or control vehicle (metronidazole, vancomycin and fidaxomicin) was added with a final concertation varied from 200 μg/ml to 0.19 μg/ml (2-fold dilution) (Wiegand, Hilpert et al. 2008). The plates were incubated at 37° C. for 18 h. The MIC was “the lowest or minimum concentration of lysin or control vehicle that prevented the formation of a cell pellet (a measure of growth) on the bottom of the wells” (Gilmer, Schmitz et al. 2017). The MICs were also confirmed by measuring the OD600 values using a Bio-Rad plate reader (Bio-Rad, Hercules, CA).

[4] = 400 μg LHD by gavage twice a day, vs PBS
[5] = R20291 spores, 400 μg LHD by gavage twice a day

B1: LHD: Fusion of phage phiC2 lysin catalytic domain (LCD, 179aa), (GGGGS)3 linker and human alpha-defensin 5; SEQ ID NO:1 (protein)
chain: MKICITVGHSILKSGACTSADGVVNEYQYNKSLAPVLADTFRKEGHKVDVIICPEKQFKTKNEEKSYKIPRVNSGGYDLLIELHLNASNGQGKGSEVLYYSNKGLEYATRICDKLGTVFKNRGAKLDKRLYILNSSKPTAVLIESFFCDNKEDYDKAKKLGHEGIAKLIVEGVLNKNINGGGGSGGGGSGGGGSATCYCRTGRCATRESLSGVCEISGRLYRLCCR
In the case of B1, the “number of C. difficile spores in feces” value [1, 4] is reported as “significantly decreased”, the “toxin-level in feces (TcdA, TcdB)” value [1, 4] is reported as “significantly decreased” and the survival ([1]; 7-day experimental period, 400 μg LHD by gavage twice a day) is reported as “all mice receiving the treatment of LHD survived”. For the same molecule, the diarrhea rate [1, 5] was 60%, the duration of diarrhea [1, 5] was 3 days and the weight loss ([1]; R20291 spores, 400 μg LHD by gavage twice a day, vs PBS) was “decreased both weight loss and diarrhea rate significantly; also recorded: significantly less weight”. The weight recovery ([1]; from 3 dpi to 7 dpi, vs PBS) was “slower”, the “lytic activity (drop in OD600)” value (C. difficile R20291 [2]) was “potent lytic activities” and the MIC (C. difficile R20291 [3]) was 0.78 µg/mL.
